Measurements from the supplement of paper PMC9112550, “Optimization of the antimicrobial peptide Bac7 by deep mutational scanning” (BMC Biology, 2022).

test system: Escherichia coli TOP10; experiment: shrunken log2 fold change of peptide-encoding DNA abundance (4.5 h post-induction vs induction); higher = less antimicrobial activity (less host growth inhibition); details: time post-induction: 4.5 h; library: site-saturation at positions 5, 18, 19, 20
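Note: peptides expressed intracellularly from a pBAD plasmid library in pooled LB shake-flask culture, induced with 0.3% L-arabinose, DNA abundance read by NGS, three biological replicates, DESeq2 with apeglm shrinkage.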

| Sequence | shrunken log2 fold change |
| --- | --- |
| RRIRRRPPRLPRPRPRPGSRPRP | 0.155 |
| RRIRSRPPRLPRPRPRPGLDPRP | 0.127 |
| RRIRLRPPRLPRPRPRPGDLPRP | 0.00844 |
| RRIRDRPPRLPRPRPRPPMGPRP | 0.283 |
| RRIRNRPPRLPRPRPRPRYQPRP | -0.19 |
| RRIRMRPPRLPRPRPRPKGWPRP | 1.75 |
| RRIRRRPPRLPRPRPRPFSNPRP | -0.0243 |
| RRIRRRPPRLPRPRPRPIANPRP | -0.195 |
| RRIRYRPPRLPRPRPRPDCLPRP | -0.209 |
| RRIRTRPPRLPRPRPRPQSHPRP | -0.207 |
| RRIRVRPPRLPRPRPRPQIKPRP | -0.455 |
| RRIRFRPPRLPRPRPRPWFNPRP | -0.897 |
| RRIRRRPPRLPRPRPRPYMMPRP | -0.699 |
| RRIRWRPPRLPRPRPRPFNLPRP | 0.0233 |
| RRIRNRPPRLPRPRPRPTNDPRP | 0.0554 |
| RRIRYRPPRLPRPRPRPMHMPRP | -0.113 |
| RRIRLRPPRLPRPRPRPTEKPRP | -0.0343 |
| RRIRCRPPRLPRPRPRPIKSPRP | -0.185 |
| RRIRSRPPRLPRPRPRPCKKPRP | -0.121 |
| RRIRHRPPRLPRPRPRPNWPPRP | 0.234 |
| RRIRDRPPRLPRPRPRPMSVPRP | -0.00308 |
| RRIRKRPPRLPRPRPRPQRNPRP | 0.0463 |

| Sequence | shrunken log2 fold change |
| --- | --- |
| RRIRTRPPRLPRPRPRPKQCPRP | -0.00809 |
| RRIRNRPPRLPRPRPRPRIWPRP | 0.0945 |
| RRIRKRPPRLPRPRPRPMLDPRP | 0.16 |
| RRIRVRPPRLPRPRPRPYPRPRP | 0.0644 |
| RRIRGRPPRLPRPRPRPCCRPRP | 0.918 |
| RRIRERPPRLPRPRPRPYPDPRP | -1.61 |
| RRIRHRPPRLPRPRPRPYSQPRP | -0.177 |
| RRIRWRPPRLPRPRPRPLWLPRP | 0.202 |
| RRIRHRPPRLPRPRPRPNLAPRP | 0.0843 |
| RRIRYRPPRLPRPRPRPPMKPRP | -0.137 |
| RRIRLRPPRLPRPRPRPEQIPRP | -0.0478 |
| RRIRNRPPRLPRPRPRPAGPPRP | -0.0019 |
| RRIRNRPPRLPRPRPRPAMCPRP | -0.199 |
| RRIRNRPPRLPRPRPRPASVPRP | -0.0792 |
| RRIRIRPPRLPRPRPRPFDEPRP | -0.288 |
| RRIRKRPPRLPRPRPRPMFIPRP | -0.0367 |
| RRIRPRPPRLPRPRPRPCAWPRP | 0.0868 |
| RRIRMRPPRLPRPRPRPYARPRP | -0.00176 |
| RRIRRRPPRLPRPRPRPVRYPRP | 0.181 |
| RRIRPRPPRLPRPRPRPGWTPRP | 0.235 |
| RRIRGRPPRLPRPRPRPWDWPRP | 1.2 |
| RRIRPRPPRLPRPRPRPMCTPRP | 0.108 |

| Sequence | shrunken log2 fold change |
| --- | --- |
| RRIRWRPPRLPRPRPRPYLLPRP | -0.508 |
| RRIRPRPPRLPRPRPRPAQCPRP | 0.148 |
| RRIRCRPPRLPRPRPRPHYEPRP | -0.442 |
| RRIRFRPPRLPRPRPRPGEDPRP | -0.224 |
| RRIRKRPPRLPRPRPRPWRYPRP | -0.00865 |
| RRIRQRPPRLPRPRPRPTDNPRP | -0.335 |
| RRIRKRPPRLPRPRPRPIWVPRP | 0.00396 |
| RRIRQRPPRLPRPRPRPPCLPRP | -0.192 |
| RRIRQRPPRLPRPRPRPDHIPRP | -0.0197 |
| RRIRKRPPRLPRPRPRPHHEPRP | -0.0045 |
| RRIRMRPPRLPRPRPRPSETPRP | 0.814 |
| RRIRIRPPRLPRPRPRPDKWPRP | -0.318 |
| RRIRLRPPRLPRPRPRPETCPRP | -0.0935 |
| RRIRYRPPRLPRPRPRPGWMPRP | -0.000507 |
| RRIRYRPPRLPRPRPRPNEDPRP | -0.246 |
| RRIRRRPPRLPRPRPRPSVGPRP | 0.171 |
| RRIRMRPPRLPRPRPRPHFPPRP | -0.106 |
| RRIRGRPPRLPRPRPRPMAGPRP | 0.0763 |
| RRIRFRPPRLPRPRPRPRILPRP | 0.0716 |
| RRIRPRPPRLPRPRPRPWYVPRP | -0.369 |
| RRIRYRPPRLPRPRPRPEVFPRP | -0.0536 |
| RRIRDRPPRLPRPRPRPHLHPRP | -0.0995 |

| Sequence | shrunken log2 fold change |
| --- | --- |
| RRIRGRPPRLPRPRPRPDADPRP | 3.64 |
| RRIRSRPPRLPRPRPRPYNSPRP | -0.287 |
| RRIRRRPPRLPRPRPRPMAWPRP | 0.0237 |
| RRIRQRPPRLPRPRPRPVYMPRP | -0.269 |
| RRIRARPPRLPRPRPRPTNTPRP | 0.0887 |
| RRIRNRPPRLPRPRPRPWKGPRP | -0.0198 |
| RRIRSRPPRLPRPRPRPKPPPRP | 0.292 |
| RRIRHRPPRLPRPRPRPVPRPRP | 0.429 |
| RRIRCRPPRLPRPRPRPMYSPRP | -0.386 |
| RRIRSRPPRLPRPRPRPHPHPRP | -0.168 |
| RRIRTRPPRLPRPRPRPRRSPRP | 0.318 |
| RRIRYRPPRLPRPRPRPGTTPRP | -0.0671 |
| RRIRGRPPRLPRPRPRPQITPRP | 0.25 |
| RRIRFRPPRLPRPRPRPISWPRP | -0.132 |
| RRIRLRPPRLPRPRPRPKWKPRP | 0.0281 |
| RRIRFRPPRLPRPRPRPGGYPRP | 0.0294 |
| RRIRDRPPRLPRPRPRPFAQPRP | 0.0821 |
| RRIRARPPRLPRPRPRPWCYPRP | -0.306 |
| RRIRMRPPRLPRPRPRPHCKPRP | 0.00214 |
| RRIRERPPRLPRPRPRPQTHPRP | -0.359 |
| RRIRGRPPRLPRPRPRPLITPRP | 0.676 |
| RRIRNRPPRLPRPRPRPGPNPRP | 0.0126 |

| Sequence | shrunken log2 fold change |
| --- | --- |
| RRIRWRPPRLPRPRPRPIWTPRP | 0.107 |
| RRIRARPPRLPRPRPRPQYVPRP | -0.116 |
| RRIRYRPPRLPRPRPRPIWAPRP | -0.089 |
| RRIRLRPPRLPRPRPRPHIQPRP | -0.341 |
| RRIRTRPPRLPRPRPRPGPCPRP | 0.219 |
| RRIRLRPPRLPRPRPRPHMMPRP | -0.135 |
| RRIRPRPPRLPRPRPRPGPPPRP | 0.366 |
| RRIRWRPPRLPRPRPRPYNWPRP | -1.06 |
| RRIRNRPPRLPRPRPRPKGGPRP | 0.226 |
| RRIRCRPPRLPRPRPRPQCSPRP | -0.0788 |
| RRIRVRPPRLPRPRPRPSSTPRP | -0.398 |
| RRIRKRPPRLPRPRPRPCMEPRP | 0.0223 |
| RRIRGRPPRLPRPRPRPYQMPRP | -0.0136 |
| RRIRKRPPRLPRPRPRPTFPPRP | 0.0736 |
| RRIRDRPPRLPRPRPRPPNNPRP | -0.261 |
| RRIRVRPPRLPRPRPRPYFPPRP | 0.109 |
| RRIRGRPPRLPRPRPRPCHIPRP | -0.028 |
| RRIRCRPPRLPRPRPRPDDLPRP | -0.118 |
| RRIRWRPPRLPRPRPRPKIPPRP | 0.0948 |
| RRIRRRPPRLPRPRPRPTNFPRP | -0.125 |
| RRIRIRPPRLPRPRPRPMTEPRP | 0.0149 |
